This note sets out measurements from patent US20140348785A1.

A word on the Kd: it is the concentration at which binding is half-saturated. Read a low Kd as tighter binding.

In this test the target is biotinylated gp41 MPER peptide RRR-(656-683)-RRK-biotin (HIV-1). As to the kind of experiment: SPR: biotinylated MPER peptide on an SA chip, Fab as analyte, 1:1 Langmuir fit. A general note: In SPR one partner is held on a chip, and binding of the other changes the refractive index at the surface.

As for 2F5 Fab, the Kd was 3.8 nM. This counts as single-digit nanomolar.
To 4E10 Fab belongs 0.74 nM.
